Drawing on US20230144799A1 (published 2023), this text covers Kd and t1/2 for two molecules.

*1 amine or outer side, *2 acyl side, *3 side chain or, on linkers, in order; H or OH if unused. Bridges are numbered along the chain shown (N, C = ends). Primed or numbered codes have the meaning given here. Where no end group is shown, it is not given here. [ ]: non-standard residue; d: D form. Sar10″ = ten sarcosine residues, CN(CC(=O)N(C)CC(=O)N(C)CC(=O)N(C)CC(=O)N(C)CC(=O)[*:2])C(=O)CN(C)C(=O)CN(C)C(=O)CN(C)C(=O)CN(C)C(=O)CN(C)[*:1]; TATA = O=C(CC[*:1])N1CN(C(=O)CC[*:2])CN(C(=O)CC[*:3])C1; Hyp = O=C(O)[C@@H]1C[C@@H](O)CN1; hArg = N=C(N)NCCCC[C@H](N)C(=O)O; βAla = NCCC(=O)O

The test has as its target T1, Rat EphA2, biotinylated (in house) (Rat).
T1 construct: SPR target captured on streptavidin; also called Rat EphA2 (SPR)
In words: SPR (Biacore 3000), biotinylated rat EphA2 on streptavidin, 1:1 model. A general note: SPR reads the build-up and loss of mass on a sensor chip optically.

T1 sequence (Q03145 other isoform, or with tags, fused parts or gaps): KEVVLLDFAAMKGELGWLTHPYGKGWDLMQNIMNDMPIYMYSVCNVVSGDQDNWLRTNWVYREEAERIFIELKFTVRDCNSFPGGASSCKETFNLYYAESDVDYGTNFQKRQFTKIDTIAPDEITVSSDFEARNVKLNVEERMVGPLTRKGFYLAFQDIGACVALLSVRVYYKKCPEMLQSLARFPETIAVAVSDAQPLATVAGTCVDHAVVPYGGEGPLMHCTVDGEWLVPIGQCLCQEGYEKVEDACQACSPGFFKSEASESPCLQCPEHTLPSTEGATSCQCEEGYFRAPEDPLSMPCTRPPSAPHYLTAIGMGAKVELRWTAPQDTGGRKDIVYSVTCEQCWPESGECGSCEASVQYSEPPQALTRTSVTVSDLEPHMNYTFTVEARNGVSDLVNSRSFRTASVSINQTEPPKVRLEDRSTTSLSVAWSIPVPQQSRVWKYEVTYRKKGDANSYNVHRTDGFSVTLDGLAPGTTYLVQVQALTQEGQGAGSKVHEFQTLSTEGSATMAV

B1: BCY6136 (peptide)
peptide: [βAla][Sar10″]A[hArg]DC[Hyp]LVNPLCLHP[dD]W[hArg]C-NH2
modifications: linker 6-13-20 via TATA (inferred); also: conjugated to ValCit-MMAE linker/toxin, attachment site not given here
notes: also called BT5528
Broadly, the Kd is the free concentration of one partner at which half of the binding sites on the other are occupied at equilibrium, for simple one-to-one binding. A low value points to higher affinity. B1 registered a Kd of 2.96 nM and a t1/2 of 12.6 min.

B2: BCY6173 (peptide)
peptide: [βAla][Sar10″]A[hArg]DC[Hyp]LVNPLCLHP[dD]W[hArg]C-NH2
modifications: linker 6-13-20 via TATA (inferred); also: conjugated to DM1-SS(SO3H)- linker/toxin, attachment site not given here
On to B2, for which the Kd amounted to 1.1 nM and the t1/2 came to 12 min.
